Consider 1 molecule from US20220332804A1 (CSL INNOVATION, published 2022).

Assay in all cases: SPR, antibody captured, C2 as analyte;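 note: biacore SPR at 37 °C, anti-C2 mAbs captured via goat anti-human IgG on CM5 chips, double-referenced sensorgrams fit to a 1:1 kinetic or steady-state model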
A general note: In SPR one partner is held on a chip, and binding of the other changes the refractive index at the surface.

For one test, the target named is T1, human C2 E686A (human, UniProt P06681 21-752).
T1 sequence: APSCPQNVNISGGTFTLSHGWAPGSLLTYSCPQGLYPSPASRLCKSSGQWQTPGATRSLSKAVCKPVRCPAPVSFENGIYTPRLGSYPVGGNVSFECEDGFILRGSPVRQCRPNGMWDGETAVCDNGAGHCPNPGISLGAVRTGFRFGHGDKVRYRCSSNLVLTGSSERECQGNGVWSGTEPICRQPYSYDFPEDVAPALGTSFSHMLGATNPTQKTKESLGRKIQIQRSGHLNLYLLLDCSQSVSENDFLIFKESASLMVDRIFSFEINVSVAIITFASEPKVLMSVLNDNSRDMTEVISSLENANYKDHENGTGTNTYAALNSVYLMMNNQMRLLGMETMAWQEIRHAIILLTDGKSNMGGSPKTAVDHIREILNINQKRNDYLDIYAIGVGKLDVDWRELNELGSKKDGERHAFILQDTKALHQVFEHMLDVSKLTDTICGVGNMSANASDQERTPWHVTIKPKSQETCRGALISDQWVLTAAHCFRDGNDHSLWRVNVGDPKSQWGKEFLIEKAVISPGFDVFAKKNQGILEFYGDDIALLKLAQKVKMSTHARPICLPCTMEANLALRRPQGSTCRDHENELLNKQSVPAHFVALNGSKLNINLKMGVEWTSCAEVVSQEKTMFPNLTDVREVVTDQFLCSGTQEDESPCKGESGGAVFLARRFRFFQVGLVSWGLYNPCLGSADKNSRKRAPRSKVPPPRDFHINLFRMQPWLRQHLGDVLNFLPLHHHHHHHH

A further test addresses T2, human C2 S713A (human, UniProt P06681 21-752).
T2 sequence: T1 sequence with A666E, S693A

The target of another test is T3, human C2 D561A (human, UniProt P06681 21-752).
T3 sequence: T1 sequence with D541A, A666E

The target in the next test is T4, human C2 K715A (human, UniProt P06681 21-752).
T4 sequence: T1 sequence with A666E, K695A

Residue numbers refer to the chain shown, from its start.

Procedure for human C2 D561A: (§1) Surface plasmon resonance (SPR, Biacore) was used for all binding affinity analyses. In brief, goat anti-human IgG was directly immobilised onto the carboxymethyl dextran surface of CM5 sensorchips to approximately 12,000 RU using standard NHS/EDC chemistry at pH 5. The immobilised antibody surface was pre-conditioned with ten injections of polyclonal human IgG (Privigen 60 s) prepared at 1 μg/mL. Ligands (anti-C2 mAbs) were captured at the beginning of each cycle as described below. An adjacent spot or flow cell in which only Polyclonal IgG was capture was used as a reference surface. The goat anti-human IgG Fc antibody surface was regenerate in 100 mM H3PO4, injected for 45 seconds at the end of each cycle. Experiments were performed at 37° C. and the flow rate of each experiment was kept constant at 30 μL/min.
(§2) Sensogram data was double-referenced against a reference anti-IgG surface (i.e. minus anti-C2 mAb) and blank buffer injections obtained within each experiment. The binding data was fit to 1:1 (kinetic or steady-state) model using local Rmax and null refraction index (RI=0) when appropriate. Buffers and solutions were filtered (0.22 μm) prior to use.
Procedure for human C2 E686A: as §1, §2
Procedure for human C2 K715A: as §1, §2
Procedure for human C2 S713A: as §1, §2

B1: RF16-226 (antibody, human IgG4 S228P, lambda)
heavy: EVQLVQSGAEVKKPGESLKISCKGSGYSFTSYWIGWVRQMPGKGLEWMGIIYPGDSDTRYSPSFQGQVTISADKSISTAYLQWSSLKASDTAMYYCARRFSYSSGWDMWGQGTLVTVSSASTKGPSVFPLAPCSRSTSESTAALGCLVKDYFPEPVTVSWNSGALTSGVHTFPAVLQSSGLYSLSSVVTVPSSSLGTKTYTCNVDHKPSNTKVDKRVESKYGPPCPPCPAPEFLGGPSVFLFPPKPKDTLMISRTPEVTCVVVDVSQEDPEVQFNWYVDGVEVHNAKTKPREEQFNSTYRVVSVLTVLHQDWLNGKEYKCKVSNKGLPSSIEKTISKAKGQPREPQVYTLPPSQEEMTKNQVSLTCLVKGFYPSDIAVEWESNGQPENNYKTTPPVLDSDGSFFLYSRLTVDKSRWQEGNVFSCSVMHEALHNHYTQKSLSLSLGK
light: SYELTQPPSVSVSPGQTARITCSGDALTSKYVAWYQQKSGLAPLLVIYEDTRRPSGIPAKFSGSSSGSVATLTISGAHGDDEADYYCYSTDASGHQRVFGGGTKLTVLSQPKAAPSVTLFPPSSEELQANKATLVCLISDFYPGAVTVAWKADGSPVKAGVETTKPSKQSNNKYAASSYLSLTPEQWKSHRSYSCQVTHEGSTVEKTVAPTECS
notes: pH-dependent anti-C2 antibody from a phage display library; also called WT
What is called Kd is the free concentration of one partner at which half of the binding sites on the other are occupied at equilibrium, for simple one-to-one binding. Lower therefore signals a tighter complex. For the molecule B1, the Kd in the test with human C2 E686A was found to be 47.3 nM; in the test with human C2 S713A, 19 nM; with human C2 D561A, 102 nM; with human C2 K715A, 16.2 nM.
